One block for each molecule: values may come before it.
What was measured:
[1] = molecular target: Cep63 (424–541)•Cep152 (1205–1295) heterotetrameric complex (human) (UniProt O94986); experiment: AUC; sedimentation equilibrium, 4 °C, pH 5.5 (150 mM NaCl, 50 mM citric acid/sodium citrate, 1 mM TCEP, 5% glycerol); 12.6, 25 and 55 µM fitted globally; reversible tetramer–octamer–hexadecamer model (heterotetramer to octamer, octamer to hexadecamer)
[2] = molecular target: T1, Cep152 (1205–1295) (human, UniProt O94986-3 1205-1295); experiment: heterotetramer formation (2:2), iSCAMS; printed as <~60 nM
T1 chain: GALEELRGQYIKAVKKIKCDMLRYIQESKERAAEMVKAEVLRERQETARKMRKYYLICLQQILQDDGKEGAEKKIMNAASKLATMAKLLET

[3] = molecular target: the molecule itself; experiment: SEC-MALS; Cep63 (440–490), Wyatt SEC-MALS system
[4] = molecular target: the molecule itself; experiment: SEC; SEC elution of Cep63 (440–490) triple mutants (Supplementary Fig. 3d)
[5] = molecular target: His-Cep63 (424–541) (human); experiment: AUC; sedimentation velocity, 50,000 rpm, 4 °C, 150 mM NaCl, 20 mM Tris pH 8.0, 0.5 mM TCEP, 5% glycerol

Kd, octamer–octamer interaction (octamer–hexadecamer step) [1]: 2.2 µM
Kd, tetramer–tetramer interaction (tetramer–octamer step) [1]: 370 µM
k16 (dissociation constant of the hexadecamer into four tetramers, c4^4/c16) [1]: 3e-13 M^3
stoichiometry N (heterotetramers in the oligomer) [1]: 4
Molecule: Cep63 (424–541)•Cep152 (1205–1295) heterotetrameric complex (from UniProt O94986-3 1205-1295)

Kd [2]: < 0.06 µM
B1: His-Cep63 (424–541) (domain or fragment)
chain: LHQRDITIASTKGSSSDMEKRLRAEMQKAEDKAVEHKEILDQLESLKLENRHLSEMVMKLELGLHECSLPVSPLGSIATRFLEEEELRSHHILERLDAHIEELKRESEKTVRQFTALK

B2: Cep63 (440–490) (domain or fragment, human, UniProt Q96MT8 440-490, looked up)
chain: DMEKRLRAEMQKAEDKAVEHKEILDQLESLKLENRHLSEMVMKLELGLHEA
notes: Cep63, human, residues 440–490; The structure was phased by SAD; also called Cep63 (440–490) WT; Cep63 (440–490) dimer; source: E. coli BL21(DE3) RIL, purified (Ni-NTA, TEV digestion, Sephacryl S-100 HR SEC); selenomethionine-substituted protein from E. coli B834(DE3); not shown: (His)6, N-terminal, cleaved; MBP, N-terminal, cleaved
stoichiometry N [3]: 2

B3: Cep63 (440–490) (L445A, A456K, L463K) (domain or fragment, human, UniProt Q96MT8 440-490, looked up)
chain: DMEKRARAEMQKAEDKKVEHKEIKDQLESLKLENRHLSEMVMKLELGLHEA
notes: Cep63, human, residues 440–490 with L445A, A456K, L463K; also called AKK; pKM6657; source: E. coli BL21(DE3) RIL, purified (Ni-NTA, TEV digestion, Sephacryl S-100 HR SEC); not shown: (His)6, N-terminal, cleaved; MBP, N-terminal, cleaved
binding result [4]: binds

stoichiometry N (Cep63:Cep152 ratio (2:2)) [5]: 1
B4: Cep152 (1205–1295) (domain or fragment)
chain: GALEELRGQYIKAVKKIKCDMLRYIQESKERAAEMVKAEVLRERQETARKMRKYYLICLQQILQDDGKEGAEKKIMNAASKLATMAKLLET
